Laboratory results: the DeepSol protein solubility set

Assay: soluble on expression in E. coli; label from the status in PepcDB or PDB records

Q: With “MNITPFPTLSPATIDAINVIGQWLAQDDFSGEVPYQADCVILAGNAVMPTIDAACKIARDQQIPLLISGGIGHSTTFLYSAIAQHPHYNTIRTTGRAEATILADIAHQFWHIPHEKIWIEDQSTNCGENARFSIALLNQAVERVHTAIVVQDPTMQRRTMATFRRMTGDNPDAPRWLSYPGFVPQLGNNADSVIFINQLQGLWPVERYLSLLTGELPRLRDDSDGYGPRGRDFIVHVDFPAEVIHAWQTLKHDAVLIEAMESRSLRLEHHHHHH” as the sequence, how does the “soluble on expression in E. coli” value read?
A: Its value is “not soluble”.

Q: With “MNVIVEISDRLGMDYYFVSVTTTAKSLQLNSPKKYYKIWHQEIPYHQITEWHLTQQEDIQEISFAWQETFYRFVDYGTGIVPYLTQFCKVMR” as the sequence, how does the “soluble on expression in E. coli” value read?
A: Its value is “not soluble”.

Q: For “MGSDKIHHHHHHMKERILQEIKTRVNRKSWELWFSSFDVKSIEGNKVVFSVGNLFIKEWLEKKYYSVLSKAVKVVLGNDATFEITYEAFEPHSSYSEPLVKKRAVLLTPLNPDYTFENFVVGPGNSFAYHAALEVAKHPGRYNPLFIYGGVGLGKTHLLQSIGNYVVQNEPDLRVMYITSEKFLNDLVDSMKEGKLNEFREKYRKKVDILLIDDVQFLIGKTGVQTELFHTFNELHDSGKQIVICSDREPQKLSEFQDRLVSRFQMGLVAKLEPPDEETRKSIARKMLEIEHGELPEEVLNFVAENVDDNLRRLRGAIIKLLVYKETTGKEVDLKEAILLLKDFIKPNRVKAMDPIDELIEIVAKVTGVPREEILSNSRNVKALTARRIGMYVAKNYLKSSLRTIAEKFNRSHPVVVDSVKKVKDSLLKGNKQLKALIDEVIGEISRRALSG”, which “soluble on expression in E. coli” value is on record?
A: Its value is “not soluble”.

Q: With “MDWKKIYEDRTCTADEAVKSIKSGDRVLFAHCVAEPPVLVEAMVANAAAYKNVTVSHMVTLGKGEYSKPEYKENFTFEGWFTSPSTRGSIAEGHGQFVPVFFHEVPSLIRKDIFHVDVFMVMVSPPDHNGFCCVGVSSDYTMQAIKSAKIVLAEVNDQVPVVYGDTFVHVSEIDKFVETSHPLPEIGLPKIGEVEAAIGKHCASLIEDGSTLQLGIGAIPDAVLSQLKDKKHLGIHSEMISDGVVDLYEAGVIDCSQKSIDKGKMAITFLMGTKRLYDFAANNPKVELKPVDYINHPSVVAQCSKMVCINACLQVDFMGQIVSDSIGTKQFSGVGGQVDFVRGASMSIDGKGKAIIAMPSVAKKKDGSMISKIVPFIDHGAAVTTSRNDADYVVTEYGIAEMKGKSLQDRARALINIAHPDFKDELKAEFEKRFNAAFSAWSHPQFEK” as the sequence, how does the “soluble on expression in E. coli” value read?
A: Its value is “soluble”.

Q: For “MQVLHVCSEMFPLLKTGGLADVIGALPAAQIADGVDARVLLPAFPDIRRGVTDAQVVSRRDTFAGHITLLFGHYNGVGIYLIDAPHLYDRPGSPYHDTNLFAYTDNVLRFALLGWVGAEMASGLDPFWRPDVVHAHDWHAGLAPAYLAARGRPAKSVFTVHNLAYQGMFYAHHMNDIQLPWSFFNIHGLEFNGQISFLKAGLYYADHITAVSPTYAREITEPQFAYGMEGLLQQRHREGRLSGVLNGVDEKIWSPETDLLLASRYTRDTLEDKAENKRQLQIAMGLKVDDKVPLFAVVSRLTSQKGLDLVLEALPGLLEQGGQLALLGAGDPVLQEGFLAAAAEYPGQVGVQIGYHEAFSHRIMGGADVILVPSRFEPCGLTQLYGLKYGTLPLVRRTGGLADTVSDCSLENLADGVASGFVFEDSNAWSLLRAIRRAFVLWSRPSLWRFVQRQAMAMDFSWQVAAKSYRELYYRLK”, which “soluble on expression in E. coli” value is on record?
A: The value was “not soluble”.

Q: For “MVSMNMFEEVEVEAYVYPTEDIEKVKKAMLNLVPGLKFEAFDKGEYMILVGRTRDKRALQRLYELFRGQQILDTARMMLEEGYFGEEIIIKVHKQVAYVGKVNFNEESPLGPITIIIRTKEPQKLMKWLAPRTKDGVPIEAAALEHHHHHH”, which “soluble on expression in E. coli” value is on record?
A: Its value is “not soluble”.

Q: Which “soluble on expression in E. coli” value does the source give for “MGSDKIHHHHHHMKVMKDYKLMAVGQIVADCFDYAKVFNKYGIDFCCNGDVSLADACGKMGIDADCLLEELKQIKSEQSLTLDFKSWPIDLLVDYILKFHHRNIRYQGPQILQLLDRVCEAHAGKHPELYEVRELFQESWIDLNNHLTKEEMVLFPYIYDLFDAVAQHRPIPAFHCGSVSSPISVMMSEHDAEGERFRRISGLTHGYLVPGDACSSYRLLLEMLRTFEDNLHHHIHLENNIVFPKAIELQENCE” here?
A: Its value is “not soluble”.

Q: With “MFKFHLITKDGKARRGRIYTPHGVIETPVFMPVGTQGTVKAMLHKLLDEIGTQIILGNTYHLYLRPGTEIIKKAGGLHRFISWNKPILTDSGGYQVFSLAKGKFGNRKAKVKVSDEGVEFQDHLQGDKHFFTPEKVVEIQEIFGSDIMMPLDECVEYPVDKNYAEKALKRTINWLERSIKAKKREDQVLFGIVQGAFWKDLRKKAVEETLKFDEFLFGYSIGGLSVGEPKEIMYGMTEVVCELLPEKKPRYLMGVGKPEDILEAVERGVDMFDCVVPTRNARTGTLYTSQGVVDIRHSKWKEDFSPLDPECDCYTCRNFSKAYLRHLFVAEEISAYVLNTIHNLRFYLKMMEEVRKAIEEKRFKELKEKYLQRVKNKL” as the sequence, how does the “soluble on expression in E. coli” value read?
A: Its value is “soluble”.

Q: With “MAFICELDEQWSYVGSKARQHWLGYAYNTKTGGVLAYTFGPRTDQTCRELLALLTPFNIGMLTSDDWGSYGREVPKNKHLTGKIFTQRIERNNLTLRTRIKRLGRKTICFSRSVEIHEKVIGAFIEKHMFYLEHHHHHH” as the sequence, how does the “soluble on expression in E. coli” value read?
A: The value was “soluble”.

Q: Which “soluble on expression in E. coli” value does the source give for “MRRKMERIALIEDDKDLAFLVKLNLEREGFEVEHFERATPFFKFISENSVDLILIDIMLPDLDGFRIANFLKSRADLKEIPVIFITAKGEEEDKLKGFELGADDYITKPFSMKELIARVRAVLKRYKKVSESKVLKYEGVELDTERQKLFVDGREVYLTPAEFKILKTLMENFGRPVSRSSLVEKLWDYERETTERAIDVHVKHIRDKLGKYKGLIKTVRGVGYKFEN” here?
A: Its value is “soluble”.

Q: Which “soluble on expression in E. coli” value does the source give for “TEQPCVEKAPAYQRFHALAQPGLPGLVLPYKYQVLVEMFRSMDTIVSMLHNRSETVTFAKVKQGVQEMMRKRFEERNVGQIKTVYPTSYRFRQECNVPTFKDSIKRSDYQLTIEPLLGQEAGGATQLTATCLLQRRQVFRQNLVERVKEQHKVFLASLNPPMAVPDDQLTRWHPRFNVDEVPDIEPAELPQPPVTEK” here?
A: The value was “soluble”.

Q: With “MGSDKIHHHHHHMRCSPCRMQQAHTPPHSAKSIKHDVKRRIILDAARRMFAHDGAGSVSMRNLAREVGCSAAVLYRYFGSRESILWELRCEGIVLLNDALMGAADAADPLLRLQQLGRAYVSFGIDNLEYYELMFRTPFYEFDAGSLPDGLPDDALVLLHSTAAECLELGYFAGSDVTTVVSSMWSLVHGLVSLILNGRAPLMMGALDTHAMIDRVPDFIAGLARAARGGI” as the sequence, how does the “soluble on expression in E. coli” value read?
A: The value was “not soluble”.

Q: For “MGSDKIHHHHHHMRLDLFFDRLLSTEGDKLATVAKNTILEPSVAYFDFTASGLAYRTIEERIASILPRYANTHSEVTNHALFMTELYDEARANLKRHMDLDEEFALFPCGNGSTGAIKKFQELMGLYLPPRTQKRLSLTPDPALFPVVFVGPYEHHSNEVSYRESPCEVVRIPLDSRGLVDMGVLRAKLGEYQGREIITSFSLASNVTGIIIPYEEISALIRKAGGIVTFDMATASSYMNIPSKFFDAAFFSPHKLLGGVGSCGLLAMRKSLIDSTLPPTFAGGGTVTYVSRIDQYYREDPEYREDAGTPGVLQLLRASLAYQLRNEVGLEFIAKRKKELCAPLVEALRKMERVKIYGDIESCNRLGIFAINIEGISPYEVCQRLSREYLIETRAGCSCAGPYGHDLLGLKDDGLFASRPGWVRISVHYSHSLEQIERLLGALEEIARD”, which “soluble on expression in E. coli” value is on record?
A: The value was “not soluble”.

Q: With “MRSEAKNQKPTAYPMKGIDDLPLHEIIEPALDITSPQVACVGIGVRAVCNYDCVYCYAGHSDKRGDMSVEQYFDVMEQAAELGVKTIIMTGAGGKSEPGLFKGLLPILERASSLGMSTAMFTNGSQFGDDKVARIHNLSAVELAHKIRELKVSLFIACETLEPDLYSNITKKPIAPFQTGLINLIAAGFIGTPGEPTSVTISSVIMRQNFEELPVLQKFAHNNGWQYICKFPTLVGSALDHPELFFSPEEAAERHSIVAELRDKPETLTVTHSGAEYCLVNQVGMSFDNLGTPLNCLSGCEITSRKDMNLKSMRLADIVLLKKHLAHQGIGNCPKKAVFYDFKQPKLEAAAFHGLS” as the sequence, how does the “soluble on expression in E. coli” value read?
A: Its value is “not soluble”.

Q: With “MSNWGDYQLGGLAPPTEPWLAIRPFLQLPHDFKIVFLSIERGLTRKNDFKTVRQLQKWAYCKPRFCGRGQSPELVIPPVGHPPSSSGLIVKIKQMIRSCVRLASQSTNKLLIFSSLSRNSQLYISMSSSDLGRGFKQGRGTGDSGQSSLYNNERRWKDDDTFNALGATDELSSFLGVCGASAQNDGSMSDVVETLTRLQCCLQDVGAHLATPPKNSSERKQKKTAFDIAMVEWINAEIDRYGDALPAIRQFILSGGGMTSAQLQYSRAICRRAERSIVPLMRDEDVDPMALKFLNRMSDLLFVLGRTACMRNKNEELTYLRPDSFTNLKWDRKSLHEKK” as the sequence, how does the “soluble on expression in E. coli” value read?
A: Its value is “not soluble”.

Q: Which “soluble on expression in E. coli” value does the source give for “SLTTQRLGLIMNGVTGRMGLNQHLIRSIVAIRDQGGVRLKNGDRIMPDPILVGRSAEKVEALAKRFNIARWTTDLDAALADKNDTMFFDAATTQARPGLLTQAINAGKHVYCEKPIATNFEEALEVVKLANSKGVKHGTVQDKLFLPGLKKIAFLRDSGFFGRILSVRGEFGYWVFEGGWQEAQRPSWNYRDEDGGGIILDMVCHWRYVLDNLFGNVQSVVCIGNTDIPERFDEQGKKYKATADDSAYATFQLEGGVIAHINMSWVTRVYRDDLVTFQVDGTHGSAVAGLSDCMIQARQATPRPVWNPDEKRLHDFYGDWQKLPDNVSYDNGFKEQWEMFIRHVYEDAPYKFTLLEGAKGVQLAECALKSWKERRWIDVAPIK” here?
A: The value was “soluble”.

Q: Which “soluble on expression in E. coli” value does the source give for “MQDNSTKYLLYIQTATSNHLETNCVFLHCDYILKVPINKLVSYYAKLHLSSQSVLIETAKNILNINKLVPIYINPKTILFPLKHKRAPIQIYINAHYIVGMTAIENSTLIHFQEGIQLEVDEPFSLVSKKCHESLALKHFIENTISNLEHHHHHH” here?
A: The value was “not soluble”.

Q: Which “soluble on expression in E. coli” value does the source give for “MGSDKIHHHHHHACTDDSNDVVATTSEVIEQAEVPFSVVLKAMNSDGNDITTKGEVNGATLFVFDQNNDFFEQINVNKSTILSRRAIDINCPNSNDITVIAWSGINSGNEEISNMSKANIISDLQVSLKENNGIANIPSDLFYGQVTLHKNSSTKSTVSNELQIIRKTSIFQLSTKGLIKYLGSNAGNFEYRIKNTKSSLDYNGNPTGEEVEFAFPASFDEKGNLTTETQAIFPAQNITVELYKDGNLIFSSEKDKNGELFAATPGKRTEITFKYSGEVSANITIADWATVIQHITMN” here?
A: The value was “not soluble”.

Q: Which “soluble on expression in E. coli” value does the source give for “MMLNNFETDSIFTPEQVLENRGRVAIFIDGSNLFYAALQLGIEIDYTKLLCRLTGGSRLLRSFFYTGVDRTNEKQQGFLLWMRRNGYRVIAKDLVQLPDGSKKANLDVEIAVDMMALVDSYDTAVLVSGDGDLAYAVNSVSYRGVRVEVVSLRSMTSDSLINVSDRYIDLEAIKEDIQKTPRQSYPYRPLSGIGFLEDPRTSDGHLEIQE” here?
A: Its value is “not soluble”.

Q: Which “soluble on expression in E. coli” value does the source give for “MAADYTHFIHRQHAPPEVCLSAFSGHNDALDFPDSEGSPVSQSLIAALQNPALFPHPVEGFQVIETHISWVLLTGPFAYKVKKPVNFGFLDFTSLDAREHFCGEELRLNQRLTEDLYLEVLPITGSAEAPVLGGDGPAIEYVLKMRQFPQSQLLSTLQANSELTTAHIDEMARQIAHFHLNAPKVPAEHEAGTPESVMAPVRQNFEQIRPFLSDKADLQQLEALEAWAETSFERLKPLLAQRKSEGFIRECHGDIHLGNATLIDGKVVIFDCIEFNEPFRFTDVYADTGFLAMDLEDRGLKSLARRFISQYLELTGDYQGLELLNFYKAYRALVRAKVSLFSMPAEATPVQRATTLRQYRNYANLAESYSTIPSRFLAITSGISAVGKSRVAMRLVEALGAVRLRSDVERKRLFGEQQVPNDPHAGIYSSEASSATYARLHEIAETILRAGFPVVIDATYLKRAQRDAAAKVAEATGTPCLIIDCNAPEAVVASWLAQRQADQNDPSDATLEVIANQQATREALTDEELLRSKRIETNESGSLDALVANIRQRLPGLLEHHHHHH” here?
A: The value was “not soluble”.
